In the experiment the target is FcRn (UniProt P55899 24-297; P61769 21-119, limits assumed). Nature of the experiment: method not described; PBPK model input at pH 6.0, source given as 'Unpublished data'.

For orientation: Kd means a measure of binding affinity in units of concentration. Higher therefore signals a looser complex.

FcRn, sequence (P55899 24-297 limits assumed, form in doubt, chain 1 of 2): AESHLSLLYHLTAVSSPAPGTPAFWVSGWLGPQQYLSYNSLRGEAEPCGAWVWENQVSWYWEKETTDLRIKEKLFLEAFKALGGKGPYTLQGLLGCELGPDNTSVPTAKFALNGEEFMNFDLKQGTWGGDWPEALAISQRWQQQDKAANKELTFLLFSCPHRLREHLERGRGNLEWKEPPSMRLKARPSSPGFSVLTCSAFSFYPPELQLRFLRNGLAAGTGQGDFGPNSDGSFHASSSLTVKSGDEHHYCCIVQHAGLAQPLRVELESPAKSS
FcRn, sequence (P61769 21-119 limits assumed, form in doubt, chain 2 of 2): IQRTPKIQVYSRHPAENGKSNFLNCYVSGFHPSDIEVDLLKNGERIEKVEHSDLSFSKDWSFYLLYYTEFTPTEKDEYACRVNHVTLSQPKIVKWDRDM

B1: Ab1 (antibody, human IgG4 S228P, kappa)
heavy: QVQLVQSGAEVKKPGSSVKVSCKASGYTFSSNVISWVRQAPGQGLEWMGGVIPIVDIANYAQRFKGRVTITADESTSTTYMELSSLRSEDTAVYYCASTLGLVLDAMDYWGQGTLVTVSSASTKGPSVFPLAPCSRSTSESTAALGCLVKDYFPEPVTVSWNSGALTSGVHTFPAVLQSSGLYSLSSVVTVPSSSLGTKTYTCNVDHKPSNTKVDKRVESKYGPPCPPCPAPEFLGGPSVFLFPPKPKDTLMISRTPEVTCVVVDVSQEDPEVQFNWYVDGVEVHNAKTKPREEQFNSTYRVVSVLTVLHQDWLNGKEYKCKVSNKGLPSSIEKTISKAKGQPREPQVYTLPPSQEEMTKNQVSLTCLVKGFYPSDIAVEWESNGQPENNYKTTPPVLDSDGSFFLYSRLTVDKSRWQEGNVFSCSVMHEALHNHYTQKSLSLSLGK
light: ETVLTQSPGTLSLSPGERATLSCRASQSLGSSYLAWYQQKPGQAPRLLIYGASSRAPGIPDRFSGSGSGTDFTLTISRLEPEDFAVYYCQQYADSPITFGQGTRLEIKRTVAAPSVFIFPPSDEQLKSGTASVVCLLNNFYPREAKVQWKVDNALQSGNSQESVTEQDSKDSTYSLSSTLTLSKADYEKHKVYACEVTHQGLSSPVTKSFNRGEC
notes: Human IgG4 (S228P, Eu numbering) / kappa anti-TGF-beta antibody; also called GC2008; copies: 2 + 2
Take B1: the Kd turned out to be 1400 nM.

Source of the values: US20230144192A1 (Sanofi, published 2023).
